This is an account of results in patent US11142588B2, “Polypeptides which bind C-X-C chemokine receptor type 4 (CXCR4) and methods of treating or reducing the risk of fibrosis and cancer” (AdAlta Limited, priority 2015, dated 2021).

A short description of assay [1]: MOG induced experimental autoimmune encephalomyelitis (EAE). It is filed as in vivo, mouse. The following applies: immunohistochemistry, hematoxylin and eosin. Here is the method: This is the time that has been reported to be critical for infiltration of inflammatory cells across the blood brain barrier. […] It appears that blocking this migration can alleviate the symptoms of EAE.
Immunohistochemistry of the brains of the experimental mice was performed.

Another assay relates to Ramos tumor cells. The assay is described as follows: MTT cell proliferation assay. It is filed as cell-based, human. The following applies: 24 to 72 hrs, AM3-114 at 10 μM. As for the experimental part:
The ability of the CXCR4 molecules or polypeptides disclosed herein (i-bodies) to inhibit proliferation of Ramos tumor cells, a human Burkitt's lymphoma cell line expressing CXCR4 mentioned above, in vitro was examined in a MTT cell proliferation assay as described in (Lapteva (2005) Cancer Gene Therapy 12, 84-89). Cells were grown in a 96-well tissue culture plate and treated with a vehicle or the anti-CXCR4 body. The cells were then incubated with the MTT solution for approximately 4 hours. After this incubation period, a water-insoluble formazan dye is formed. After solubilization, the formazan dye is quantitated using a scanning multi-well spectrophotometer (ELISA reader).
In general terms: Tetrazolium assays rely on reduction of a dye to a coloured formazan, in cell work by metabolically active cells.

Assay [2] relates to Human platelet rich plasma. The assay is described as follows: SDF-1α induced platelet aggregation. The note with it: 10 or 20 ug/mL, 100 nM SDF-1 alpha. The format is cell-based. Here is the method:
Experiments were carried out to examine whether the i-bodies could block platelet aggregation induced by SDF-1α. […] In the presence of negative control i-body 21H5 (or the isotype control for 12G5: mouse IgG2a). SDF-1 induced a robust and reproducible aggregation (the descending black curves, which indicate an increase in light transmission), which matches with what has been previously published.

The nature of assay [3]: Murine air pouch model with SDF-1. The following applies: intraperitoneal, 30 minutes before SDF-1 6 μg. It is filed as in vivo, BALB/c mice. As for the experimental part: The ability of i-bodies to block inflammation was evaluated in an in vivo murine air pouch model. The subcutaneous (s.c.) air pouch is an in vivo model used to study acute and chronic inflammation (Durate et al, Models of Inflammation: Carrageenan Air Pouch, Current Protocols in Pharmacology 5.6.1-5.6.8, March 2012). Injection of irritants into an air pouch in rats or mice induces an inflammatory response that can be quantified by the volume of exudate produced, the infiltration of cells, and the release of inflammatory mediators. An air pouch, is generated by injection of sterile air under the skin of the back of the mouse. […] Air pouch lavage fluid is then analyzed for cell trafficking and cytokine release.
The air pouch assay was performed on 7-week-old BALB/c mice. On days 1 and 3, 0.2 ml/g initial body weight (IBW) of sterile air was injected under the back skin to create the pouch. […] Thirty minutes later, SDF-1 (6 μg) was injected into the pouch. Four hours later, the mice were killed in a CO2 chamber and the air pouch was washed. Cells were collected, counted, and characterized by flow cytometry.

The subject of assay [4] is normal and IPF lung fibroblasts. The assay is described as follows: Wound healing invasion assay of lung fibroblasts. The format is cell-based, human. The note with it: AMD3100 12 μM, 21H5 130 μg/ml. Here is the method:
To determine the role of CXCR4 and CXCL12 in fibroblast invasion, normal and IPF lung fibroblasts were utilized in a wound healing invasion assay. ImageLock 96 well plates (Essen Bioscience) were coated with 50 μg/ml of Basement membrane extract (BME; Trevigen) for one hour at room temperature. Normal, and fibroblasts generated from lung biopsies of idiopathic pulmonary fibrosis (IPF) patients showing slow progression or rapid progression of the disease were plated (36,000 cells per well) on the BME-coated plates and incubated overnight. […] The BME was allowed to polymerize by incubating the plate at 37° C. for 15 minutes. The plates were then inserted into an IncuCyte Zoom imaging system and images were acquired every 2 hours for approximately 50 hours. Invasion was quantified using IncuCyte software (Essen Bioscience).

Assay [5] can be described thus: Bleomycin mouse model of pulmonary fibrosis. The format is in vivo. The following applies: day 4, dose not given. The text has this: The optimal dose of Bleomycin is 2 U/mouse and the optimal time for assessing fibrocyte recruitment was confirmed at day 4. At days 4 bronchoalvelolar lavage (BAL) fluids were collected for analysis of SDF-1 concentration. One half of the lung tissue was used to make single cell suspensions of the lung and the cells used for flow cytometry and assayed for CD45+, CXCR4+ and Collagen1+ (fibrocytes). The other half of the lung tissue was Sircol stained for the presence of collagen 1 and RNA will be tested for Col-1, Col-3 and SDF-1.
SDF-1, fibrocytes and collagen deposition were monitored at Day 4. Groups were dosed with the i-body just prior to administration with Bleomycin. One half of the lung tissue was minced and washed in PBS and used to make single cell suspensions of the lung with Collagenase A and dispase treatment. The cells were then used for flow cytometry and assayed for CD45+, CXCR4+ and Collagen1+ fibrocytes. […]

Assay [6] relates to HIV entry into CXCR4 expressing T-cells. The assay is described as follows: In vitro HIV inhibition assay. It is filed as cell-based.
Assay [7] relates to human CD34+ stem and progenitor cells. The assay is described as follows: Mobilisation of human CD34+ cells in humanised NSG mice. It is filed as in vivo, humanized NODSIL2Rγ (NSG) mice. The following applies: humanised NSG mouse model, compared to AMD3100. Here is the method:
To acquire evidence of mobilisation of human CD34^+ stem and progenitor cells using CXCR4 i-bodies, the above mobilisation experiment was conducted in humanized NODSIL2Rγ (NSG) mice. NSG mice are severely immunodeficient and lack mature T cells, B-cells and NK cells and have severely defective innate immunity, which allows engraftment of human cells without subsequent rejection. NSG mice were transplanted with freshly sorted CD34^+ cord blood cells and upon confirmation of positive human CD45/CD34 engraftment (˜4-5 weeks) were used as a mouse model for human stem cell mobilisation.
Mobilised peripheral blood was harvested and assessed for CD34^+ (human stem and progenitors).

B1: 21H5: control i-body which does not bind to CXCR4, isotype control, SEQ ID NO: 82 (protein)
chain: LQVDIVPSQGEISVGESKFFLCQVAGDAKDKDISWFSPNGEKLTPNQQRISVVWNDDSSSTLTIYNANIDDAGIYKCVVTGSDAMSNYSYPISESEATVNVKIFQ
modifications: amino acid sequence encoding 21H5 i-body
B1: the “inflammatory T-cell infiltration into the white matter of the brain” value in assay [1] is reported as “Dramatic T-cell infiltration”. Besides, the “growth of RAMOS cells” value in the assay with Ramos tumor cells is “little effect on cell growth”. The “blocking of SDF-1α induced platelet aggregation” value in assay [2] is “Neither the negative control i-body nor the control MAb had any effect”. Moreover, the “cell migration / leukocyte infiltration into the air pouch” value in assay [3] was “did not inhibit cell migration”. Besides, the “invasion / motility of normal, slow and rapid IPF lung fibroblast lines” value in assay [4] was “had no effect”. For the same molecule, the “recruitment of fibrocytes into the lungs” value in assay [5] was “Neither the vehicle alone nor the negative control i-body affected recruitment”. Moreover, the “effect in HIV inhibition assay” value in assay [6] is “no effect”. The “mobilisation of human CD34+ stem cells” value in assay [7] is listed as “do not mobilise stem cells”.
